# Measurements as given in the Human Domainome abundance scans (Beltran et al. 2025).
# ± gives the uncertainty stated by the source.
# B1: CD2-associated protein, residues 271 to 331; numbered along this chain, Q9Y5K6 (parent)
# chain: KEYCRTLFAYEGTNEDELTFKEGEIIHLISKETGEAGWWRGELNGKEGVFPDNFAVQINEL
# Variants of: B1
# Assay: abundance fitness (aPCA) (normalised: wild type 0, dead -1); higher = more abundant; growth selection in yeast, the domain comes from the species named
# Settings: Homo sapiens
row,Variant,abundance fitness
1,KEYCRTLFAYEGTNEDELTFKEGEIIHLISKQTGEAGWWRGELNGKEGVFPDNFAVQINEL,-0.139 ± 0.058
2,KEYCRTLFAYEGTNEDELTFKEGEIIHLISKETGEAGWWRGELNGKEGVFPDNFAVQCNEL,-0.112 ± 0.096
3,KEYCTTLFAYEGTNEDELTFKEGEIIHLISKETGEAGWWRGELNGKEGVFPDNFAVQINEL,-0.34 ± 0.073
4,KEYCRTLRAYEGTNEDELTFKEGEIIHLISKETGEAGWWRGELNGKEGVFPDNFAVQINEL,0.12 ± 0.044
5,KEYCRTLFAYEGTNEDELTFKEGEIIHLISKETGEAGWWRGELNGKVGVFPDNFAVQINEL,-0.029 ± 0.055
6,KEYCRTLFAYEGTNEDELTFKEGEIIHLISKETGEAGWWRGELNGKNGVFPDNFAVQINEL,-0.205 ± 0.062
7,KEYCRTLFAYEGTNEDELTFKEGEIIHLISKETGEAGWWRGELNGKTGVFPDNFAVQINEL,-0.029 ± 0.09
8,KEYCRTLFAYEGTNEDELTFKEGEIIHLISKETGEAGWWRGELNGKLGVFPDNFAVQINEL,-0.241 ± 0.074
9,KEYCRTLFAYEGTNEDELTFKEGEIIHKISKETGEAGWWRGELNGKEGVFPDNFAVQINEL,-0.503 ± 0.084
10,KEYCRTLFAYEGTNEDELTFKEGEIIHMISKETGEAGWWRGELNGKEGVFPDNFAVQINEL,-0.482 ± 0.073
11,KEYCRTLFAYEGTNEDELTFKEGEIIHGISKETGEAGWWRGELNGKEGVFPDNFAVQINEL,-0.778 ± 0.077
12,KEYCRTLFAYEGTNEDETTFKEGEIIHLISKETGEAGWWRGELNGKEGVFPDNFAVQINEL,-0.541 ± 0.11
13,KEYCRTLFAYEGTNEDEATFKEGEIIHLISKETGEAGWWRGELNGKEGVFPDNFAVQINEL,-0.485 ± 0.28
14,KEYCRTLFAYEGTNEDELTFKEGEIIHLISKETGEAGWWRGELGGKEGVFPDNFAVQINEL,-0.029 ± 0.08
15,KEYCRTLFAYEGTNEDELTFKEGEIIHLISKETGEAGWWRGELVGKEGVFPDNFAVQINEL,-0.791 ± 0.092
16,KEYCRTLFAYEGTNEDELTFKEGEIIHLISKETGEAIWWRGELNGKEGVFPDNFAVQINEL,-0.613 ± 0.2
17,KEYCRTLFAYEGTREDELTFKEGEIIHLISKETGEAGWWRGELNGKEGVFPDNFAVQINEL,-0.061 ± 0.066
18,KEYCRTLFAYEGTNEDELTFKEGEIIHLISKETGEAGWWRGELNGKEGVFPDNFAVYINEL,-0.463 ± 0.11
19,KEYCRTLFAYEGTNEDELTKKEGEIIHLISKETGEAGWWRGELNGKEGVFPDNFAVQINEL,-0.665 ± 0.097
20,KEYCRTLFAYEGTNEDELTEKEGEIIHLISKETGEAGWWRGELNGKEGVFPDNFAVQINEL,-0.91 ± 0.13
21,KEYCRTLFAYEGTNEDELTFKEGEIIHLISKETGEAGWWRGEVNGKEGVFPDNFAVQINEL,-0.308 ± 0.078
22,KEYCRTLFAYEGTNEDELTFKEGEIIHLISKETGEAGWWRGEWNGKEGVFPDNFAVQINEL,-0.605 ± 0.14

row,Variant,abundance fitness
1,KEYCRTLFAYEGTNEDELTFKEGEIIHLISKETGEAGWWRGERNGKEGVFPDNFAVQINEL,-0.214 ± 0.072
2,KEYCRTLFAYEGTNEDELTFKEGEIIHLISKETGEAGWWRGESNGKEGVFPDNFAVQINEL,-0.411 ± 0.071
3,KEYCRTLFAYEGTNEDELTFYEGEIIHLISKETGEAGWWRGELNGKEGVFPDNFAVQINEL,-0.37 ± 0.16
4,KEYCRTPFAYEGTNEDELTFKEGEIIHLISKETGEAGWWRGELNGKEGVFPDNFAVQINEL,-1.01 ± 0.15
5,KEYCRTYFAYEGTNEDELTFKEGEIIHLISKETGEAGWWRGELNGKEGVFPDNFAVQINEL,-0.762 ± 0.15
6,KEYCRTHFAYEGTNEDELTFKEGEIIHLISKETGEAGWWRGELNGKEGVFPDNFAVQINEL,-0.674 ± 0.14
7,KEYCRTIFAYEGTNEDELTFKEGEIIHLISKETGEAGWWRGELNGKEGVFPDNFAVQINEL,-0.021 ± 0.1
8,KEYCRTRFAYEGTNEDELTFKEGEIIHLISKETGEAGWWRGELNGKEGVFPDNFAVQINEL,-0.276 ± 0.061
9,KEYCRTKFAYEGTNEDELTFKEGEIIHLISKETGEAGWWRGELNGKEGVFPDNFAVQINEL,-0.174 ± 0.056
10,KEYCRTLFAYEGTNEDELTFKEGEDIHLISKETGEAGWWRGELNGKEGVFPDNFAVQINEL,-0.285 ± 0.11
11,KEYCRTLFAYEGTNEDELTFKEGLIIHLISKETGEAGWWRGELNGKEGVFPDNFAVQINEL,-0.599 ± 0.045
12,KEYCRTLFGYEGTNEDELTFKEGEIIHLISKETGEAGWWRGELNGKEGVFPDNFAVQINEL,-0.283 ± 0.056
13,KEYCRTLFAYEGTNEDELTFKEGEIIHLISKETGEAGWTRGELNGKEGVFPDNFAVQINEL,-0.696 ± 0.1
14,KEYCRTLFAYEGTNEDELTFKEGEIIHLISKETGEAGWYRGELNGKEGVFPDNFAVQINEL,-0.579 ± 0.11
15,KEYCRTLFAYEGTNEDELTFKEGEIIHLISKETGEAGWWRGELNGPEGVFPDNFAVQINEL,-1.05 ± 0.19
16,KEYCRTLFAYEGTNEDELTFKYGEIIHLISKETGEAGWWRGELNGKEGVFPDNFAVQINEL,-0.915 ± 0.31
17,KEYCRTLFAYEGTNEDELTFKDGEIIHLISKETGEAGWWRGELNGKEGVFPDNFAVQINEL,-0.572 ± 0.15
18,KEYCRTLFAYEGTNEDELTFKAGEIIHLISKETGEAGWWRGELNGKEGVFPDNFAVQINEL,-0.072 ± 0.078
19,KEYCRTLFAYEGTNEDELTFKEGEIIHLISKETGEAGWWRGELNGKEGVFPMNFAVQINEL,0.077 ± 0.12
20,KEYCRTLFAYEGTNEDELTFKEGEIIHLISKETGEAGWWRGELNGKEGVFPPNFAVQINEL,-0.081 ± 0.12
21,KEYCRTLFAYEGTNEDELTFKEGEIIHLISKETGEAGWWRGELNGKEGVFPSNFAVQINEL,0.039 ± 0.065
22,KEYCRTLFAYEGTNVDELTFKEGEIIHLISKETGEAGWWRGELNGKEGVFPDNFAVQINEL,-0.329 ± 0.11
